The results in this text go back to PMC10042821 (2023).

The labels stand for the following.
B1: eukaryotic translation factor 5A-1 (eIF5A-1), residues 15-151 (domain or fragment)
chain: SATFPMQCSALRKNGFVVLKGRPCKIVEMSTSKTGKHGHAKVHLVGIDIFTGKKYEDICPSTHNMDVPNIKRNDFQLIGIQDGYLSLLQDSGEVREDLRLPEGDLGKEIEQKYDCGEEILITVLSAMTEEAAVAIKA

Test [1] deals with deoxyhypusine synthase N173S, patient-derived variant, His-tagged (human, UniProt P49366 1-369, N173S). Nature of the test: MST; + NAD + SPD.
The target of test [2] is T1, deoxyhypusine synthase delY305_I306, patient-derived variant, His-tagged (human, UniProt P49366 1-369, delY305_I306). Nature of the test: MST; + NAD + SPD.
Test [3] concerns the target T1, deoxyhypusine synthase delY305_I306, …. Nature of the test: MST; + NAD.
In test [4] the target is B1. Nature of the test: MST; + NAD + SPD.
Test [5] has as its target B1. The experiment in a line: MST; + NAD.

As a reminder, the Kd is the equilibrium constant for the complex coming apart. For B1, the Kd was found to be 426 nM in test [1], 1580 nM in test [2] and 368 nM in test [3].

B2: deoxyhypusine synthase, wild type, His-tagged (enzyme)
chain: MEGSLEREAPAGALAAVLKHSSTLPPESTQVRGYDFNRGVNYRALLEAFGTTGFQATNFGRAVQQVNAMIEKKLEPLSQDEDQHADLTQSRRPLTSCTIFLGYTSNLISSGIRETIRYLVQHNMVDVLVTTAGGVEEDLIKCLAPTYLGEFSLRGKELRENGINRIGNLLVPNENYCKFEDWLMPILDQMVMEQNTEGVKWTPSKMIARLGKEINNPESVYYWAQKNHIPVFSPALTDGSLGDMIFFHSYKNPGLVLDIVEDLRLINTQAIFAKCTGMIILGGGVVKHHIANANLMRNGADYAVYINTAQEFDGSDSGARPDEAVSWGKIRVDAQPVKVYADASLVFPLLVAETFAQKMDAFMHEKNED
With B2, the Kd in test [4] stood at 81.7 nM; in test [5] it was 27 nM.
